± gives the standard deviation of the averaged measurements.
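Also: ATP exposure 15 min at 22 °C before imaging.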

The series deals with ATP. Briefly: switch fluorescence ratio, 500 uM ATP over buffer (Cy3 cluster intensity, sum of 5 cycles each) (fold (ratio)); higher = stronger signal-on switching upon ATP binding; sequences stand for … in TCGTCGGCAGCGTCAGATGTGTATAAGAGACAGTTTTTTTTTTTTTTTTTTTTTTTTT…TC. Particulars: aptamer strand: ATP DNA aptamer (quencher-CACCTGGGGGAGTATTGCGGAGGAAGG + anchor), 100 nM annealed; ATP concentration: 500 uM. The essentials:
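The fluorescence ratio divides summed target-cycle Cy3 intensity by summed buffer-cycle Cy3 intensity for each cluster and is averaged per switch-domain sequence. Cy3-labelled switching-strand clusters on a modified Illumina MiSeq flow-cell were annealed to 100 nM quencher-labelled ATP aptamer, then imaged in selection buffer and again after 15 min with 500 uM ATP at 22 °C. Five such cycles were run, with NaOH stripping and re-annealing between them, and clusters outside 100-1000 RFU were excluded.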
For GTCCGAGAAT, the switch fluorescence ratio amounted to 0.986 ± 0.064.
In the case of TTCGTTGGCT it was 1.16 ± 0.23; in that of ATTATGATTG, 0.98 ± 0.028; in that of TGCTTTTTCA, 0.9895 ± 0.0042.
TTGGGCTGGA: the switch fluorescence ratio worked out at 0.961 ± 0.054.
Regarding TGGGCATAAA, the switch fluorescence ratio was found to be 1.006 ± 0.0012.
In the case of AACTTTGTGC it was 1 ± 0.055; in that of AGACTGAATT, 1.03 ± 0.02.
In the case of CGGTTTGAGT it was 0.983 ± 0.019.
For the sequence AAGGTTGATA, the switch fluorescence ratio amounted to 0.988 ± 0.032.
Next, GGCCGGGGGG: 1.02 ± 0.058; CGTTTACTTA: 1.02 ± 0.02.
Next, TTAGCGTTGT: 0.96 ± 0.028.
As for TTGGGTTGCT, the switch fluorescence ratio is 1.12 ± 0.21.
Next, GTGGGGGATT: 0.996 ± 0.03; CCAGGGGGAT: 1.97 ± 1.3; AGTCTGAGAC: 1.013 ± 0.0089.
For the sequence AATCAATCTA, the switch fluorescence ratio came out at 1.01 ± 0.071.
In the case of AGGTACCGTT it was 1.033 ± 0.0017.
Take TTTTTTGGG: the switch fluorescence ratio worked out at 0.9686 ± 0.0027.
In the case of GGGATATTTT it was 0.977 ± 0.018.
Next, GATGCGTATG: 0.997 ± 0.02; TTGCACCCGT: 1.04 ± 0.053.
Next, ATTCACAGTT: 1.03 ± 0.033; GATAGTGGCA: 1.03 ± 0.023; CTGGAGTCTG: 1.11 ± 0.086.
On to GAAGCAGGGG, for which the switch fluorescence ratio is 2.26 ± 0.74.
Next, TAGAGGGAGG: 0.967 ± 0.014; CAGGACTTTT: 1 ± 0.0083; GCTTGCTCCG: 4.46 ± 0.87.
Next, CGGCTTGTTG: 1.01 ± 0.017; GGGCTAGATG: 1 ± 0.018; CGGCTGACTG: 1.05 ± 0.019.
TTTTAGAGGT: the switch fluorescence ratio is 0.96 ± 0.033.
As for GATTAAAAGG, the switch fluorescence ratio stood at 1.017 ± 0.0067.
TCACGCTTTT: the switch fluorescence ratio was 1.11 ± 0.12.
Next, ATTGGTTTTT: 1.07 ± 0.19.
In the case of CAAAAAGGGG it was 0.964 ± 0.039; in that of CGGCCTTGCA, 1.026 ± 0.0095; in that of TGTTGTTTGC, 0.982 ± 0.014.
In the case of TGTTATTGAT it was 1.02 ± 0.029; in that of CCGGGGGCAG, 1.105 ± 0.0064; in that of ACTCCCGAAT, 1.865 ± 0.0096.
As to AACCTCCGTT, the switch fluorescence ratio came to 1.71 ± 0.064.
In the case of AAAAGAGTAT it was 1 ± 0.016; in that of TTTTTGGCGT, 1.02 ± 0.033; in that of AGCCCTGGGG, 1.02 ± 0.011.
As for TGGTTGAGTA, the switch fluorescence ratio came out at 0.981 ± 0.017.
In the case of CGGCTAGGGT it was 0.998 ± 0.021; in that of CTTAGAAGCA, 0.9943 ± 0.0017.
Take ATCTTTTAGG: the switch fluorescence ratio was 1.07 ± 0.11.
In the case of ATCCAGGGGA, the switch fluorescence ratio is 0.989 ± 0.06.
Next, TCCATCTGCG: 1.097 ± 0.007; GGGCCTCGGG: 0.953 ± 0.04; ATTACGCCA: 1.17 ± 0.11.
In the case of CCAGTAGGAG it was 1.07 ± 0.051.
Take TGAGGGAGCA: the switch fluorescence ratio amounted to 1.01 ± 0.11.
In the case of TCGTGAGGTT it was 1.01 ± 0.012; in that of GTCACTTATT, 1.036 ± 0.0058.
For the sequence AGTTTTGCGT, the switch fluorescence ratio was 1.01 ± 0.034.
Next, TTTAATACGT: 1.023 ± 0.0034; TTCCCGGTGT: 1.75 ± 0.041; GTTTGTAAGC: 1.03 ± 0.01.
In the case of TACTGTGTCT it was 0.98144 ± 0.00053.
In the case of TTTGGTGTTA it was 1 ± 0.026.
Turning to AGTTGGAGCG, the switch fluorescence ratio stood at 1.026 ± 0.0041.
Next, GAGAGTGGGC: 1 ± 0.043.
In the case of GACCCTATTC it was 1.09 ± 0.05.
Next, TAGATTTGGG: 0.967 ± 0.0089; GGGGTGAGCT: 0.981 ± 0.03.
As for AGAGTAAGTG, the switch fluorescence ratio is 0.962 ± 0.025.
Next, ATTTAAATGT: 1.01 ± 0.023; TTGGGGGGG: 1.02 ± 0.035.
Next, ATAGTGGCGC: 0.997 ± 0.016; CCGTAGAGTT: 1.29 ± 0.031.
In the case of TTAAGTTGGT it was 0.997 ± 0.045; in that of AAAGAATAAA, 1.022 ± 0.0089.
For the sequence ACAAGAGATA, the switch fluorescence ratio came out at 1.01 ± 0.015.

For the origin of these results see the supplement of paper PMC10126150.
